Reference: paper PMC11969024, “Development of chemokine network inhibitors using combinatorial saturation mutagenesis” (Communications Biology, 2025)

B1: peptide HD2 (from tick evasin EVA4) / CXCL13 (biotinylated, synthetic) (parent)
chain 1: EEDDYTAYAPLTCYFT
chain 2: VLEVYYTSLRCRCVQESSVFIPRRFIDRIQILPRGNGCPRKEIIVWKKNKSIVCVDPQAEWIQRMMEVLRKRSSSTLPVPVFKRKIP
B2: peptide HD2 (from tick evasin EVA4) / CCL17 (biotinylated, synthetic) (parent)
chain 1: EEDDYTAYAPLTCYFT
chain 2: ARGTNVGRECCLEYFKGAIPLRKLKTWYQTSEDCSRDAIVFVTVQGRAICSDPNNKRVKNAVKYLQSLERS
B3: peptide HD2 (from tick evasin EVA4) / CCL19 (biotinylated, synthetic) (parent)
chain 1: EEDDYTAYAPLTCYFT
chain 2: GTNDAEDCCLSVTQKPIPGYIVRNFHYLLIKDGCRVPAVVFTTLRGRQLCAPPDQPWVERIIQRLQRTSAKMKRRSS

Variants of: B1
Details: with CXCL13 (biotinylated, synthetic); scale: log2

First: chain 1 L11E
Second: chain 1 L11K
The enrichment of the first is lower: -6.94 for the first, -5.76 for the second.

Compared with chain 1 L11P, chain 1 L11D is lower in enrichment: -6.87 for the first, -7.86 for the second.

Compared with chain 1 L11G, chain 1 L11Q is higher in enrichment: -9.02 for the first, -5.03 for the second.

First: chain 1 Y5K
Second: chain 1 Y5C
The enrichment of the first is higher: -4.37 for the first, -7.94 for the second.

Compared with chain 1 Y5R, chain 1 Y5T is lower in enrichment: -5.82 for the first, -6.44 for the second.

Going from chain 1 E1C to chain 1 P10R, the enrichment rises from -8.53 to -7.85.

Compared with chain 1 P10Y, chain 1 P10T is higher in enrichment: -7.34 for the first, -6.64 for the second.

Going from chain 1 P10I to chain 1 P10K, the enrichment rises from -7.21 to -5.74.

First: chain 1 P10F
Second: chain 1 P10C
The enrichment of the first is higher: -8.19 for the first, -8.5 for the second.

First: chain 1 P10Q
Second: chain 1 D3C
The enrichment of the first is higher: -5.17 for the first, -8.67 for the second.

First: chain 1 D3K
Second: chain 1 D3R
The enrichment of the first is higher: -4.13 for the first, -6.23 for the second.

First: chain 1 D3H
Second: chain 1 F15D
The enrichment of the first is higher: -5.74 for the first, -7.37 for the second.

Compared with chain 1 F15H, chain 1 F15N is higher in enrichment: -6.08 for the first, -5.51 for the second.

Compared with chain 1 F15K, chain 1 A9D is lower in enrichment: -5.78 for the first, -7 for the second.

First: chain 1 A9K
Second: chain 1 A9C
The enrichment of the first is higher: -5.4 for the first, -8.86 for the second.

First: chain 1 C13D
Second: chain 1 C13H
The enrichment of the first is lower: -7.93 for the first, -7.42 for the second.

Going from chain 1 C13F to chain 1 C13W, the enrichment falls from -7.4 to -8.42.

Going from chain 1 C13G to chain 1 C13K, the enrichment rises from -9.21 to -7.9.

First: chain 1 C13R
Second: chain 1 C13M
The enrichment of the first is lower: -9.32 for the first, -8.29 for the second.

Going from chain 1 D4T to chain 1 D4K, the enrichment rises from -6.65 to -5.65.

First: chain 1 D4R
Second: chain 1 D4C
The enrichment of the first is higher: -5.86 for the first, -8.01 for the second.

Going from chain 1 Y14L to chain 1 Y14A, the enrichment rises from -9.26 to -8.81.

First: chain 1 Y14R
Second: chain 1 Y14G
The enrichment of the first is higher: -8.87 for the first, -9.28 for the second.

Going from chain 1 Y14E to chain 1 Y14K, the enrichment rises from -7.54 to -6.94.

Going from chain 1 Y14P to chain 1 Y14S, the enrichment falls from -7.63 to -8.45.

First: chain 1 Y14N
Second: chain 1 Y14Q
The enrichment of the first is higher: -5.67 for the first, -6.82 for the second.

Compared with chain 1 Y14I, chain 1 Y14D is lower in enrichment: -6.05 for the first, -6.3 for the second.

Going from chain 1 Y8P to chain 1 Y8K, the enrichment rises from -6.64 to -4.84.

Compared with chain 1 Y8C, chain 1 Y8R is higher in enrichment: -8.46 for the first, -6.96 for the second.

Going from chain 1 T12K to chain 1 T12G, the enrichment falls from -6.36 to -9.07.

Compared with chain 1 T12E, chain 1 A7C is lower in enrichment: -6.73 for the first, -8.62 for the second.

Compared with chain 1 E2K, chain 1 E2R is lower in enrichment: -3.92 for the first, -5.9 for the second.

With chain 1 E2C the enrichment was -8.79.

Variants of: B2
Details: with CCL17 (biotinylated, synthetic); scale: log2

First: chain 1 Y14N
Second: chain 1 Y14D
The enrichment of the first is higher: -7 for the first, -7.63 for the second.

Compared with chain 1 Y14E, chain 1 Y14R is lower in enrichment: -8.87 for the first, -10.2 for the second.

Compared with chain 1 D4C, chain 1 P10I is higher in enrichment: -9.34 for the first, -8.54 for the second.

Compared with chain 1 P10H, chain 1 P10R is lower in enrichment: -8.06 for the first, -9.18 for the second.

Going from chain 1 P10S to chain 1 P10V, the enrichment falls from -9.3 to -10.5.

Compared with chain 1 P10N, chain 1 P10K is higher in enrichment: -8.12 for the first, -7.07 for the second.

First: chain 1 P10M
Second: chain 1 P10C
The enrichment of the first is higher: -8.6 for the first, -9.82 for the second.

First: chain 1 Y8M
Second: chain 1 Y8D
The enrichment of the first is lower: -8.59 for the first, -7.65 for the second.

First: chain 1 Y8G
Second: chain 1 Y8A
The enrichment of the first is higher: -8.81 for the first, -8.88 for the second.

Going from chain 1 Y8E to chain 1 Y8T, the enrichment falls from -6.29 to -8.59.

Compared with chain 1 Y8P, chain 1 Y8R is lower in enrichment: -7.97 for the first, -8.29 for the second.

Going from chain 1 Y8K to chain 1 Y8Q, the enrichment falls from -6.17 to -6.46.

Going from chain 1 Y8I to chain 1 Y8N, the enrichment rises from -9.49 to -8.23.

Going from chain 1 Y5N to chain 1 Y5R, the enrichment rises from -7.81 to -7.15.

Compared with chain 1 Y5K, chain 1 Y5T is lower in enrichment: -5.7 for the first, -7.77 for the second.

First: chain 1 Y5E
Second: chain 1 Y5Q
The enrichment of the first is higher: -3.59 for the first, -5.46 for the second.

First: chain 1 T6C
Second: chain 1 E1C
The enrichment of the first is lower: -11.2 for the first, -9.85 for the second.

Variants of: B3
Details: with CCL19 (biotinylated, synthetic); scale: log2

Compared with chain 1 A7C, chain 1 L11G is lower in enrichment: -8.81 for the first, -9.22 for the second.

Going from chain 1 L11D to chain 1 L11N, the enrichment rises from -8.06 to -7.42.

Going from chain 1 L11E to chain 1 T12G, the enrichment falls from -7.14 to -9.27.

First: chain 1 T12Q
Second: chain 1 T12D
The enrichment of the first is higher: -6.6 for the first, -7.63 for the second.

Compared with chain 1 E1C, chain 1 E1Q is higher in enrichment: -8.72 for the first, -3.57 for the second.

First: chain 1 D4N
Second: chain 1 D4E
The enrichment of the first is lower: -6.94 for the first, -4.92 for the second.

First: chain 1 D4H
Second: chain 1 D4C
The enrichment of the first is higher: -6.74 for the first, -8.21 for the second.

Compared with chain 1 D4G, chain 1 D4K is lower in enrichment: -5.19 for the first, -5.85 for the second.

First: chain 1 D4R
Second: chain 1 D4P
The enrichment of the first is lower: -6.06 for the first, -6.04 for the second.

Going from chain 1 D4T to chain 1 D4A, the enrichment falls from -6.85 to -7.05.

chain 1 Y8Q gave an enrichment of -5.33.
